Test [1] deals with K^d molecules isolated from the spleen of BALB/c mice (mouse) (UniProt P01887).
For test [2], the target named is SC-K^d -15 (mouse) (UniProt P01887).
Test [3] shares this target. Nature of the test: direct peptide binding assay, peptide coated at 10 µg/ml pH 5, 35S-labeled SC-Kd, input 10,000 cpm, duplicate.
Test [4] addresses HLA-DR3 (human). Briefly: direct peptide binding assay, peptide coated at 10 µg/ml pH 5, 125I-labeled HLA-DR3, input 200000 cpm, duplicate.
The target of test [5] is HLA-DRw13 (human). Briefly: direct peptide binding assay, peptide coated at 10 µg/ml pH 5, 125I-labeled HLA-DRw13, input 200000 cpm, duplicate.
The target of test [6] is SC-K^d -15 (mouse) (UniProt P01887). Nature of the test: direct peptide binding assay, peptide coated at 10 µg/ml pH 9.6, 35S-labeled SC-Kd, input 6000 cpm, no coated peptide 228 and 223, duplicate.
Test [7] has as its target K^d molecules isolated from the spleen of BALB/c mice (mouse) (UniProt P01887). Nature of the test: direct peptide binding assay, peptide coated at 10 µg/ml pH 9.6, 125I-labeled H-2K, input 100000 cpm, no coated peptide 1471 and 1595, duplicate.
Test [8] deals with T1, SC-K^d -15 (Mus musculus, UniProt P01887+P01902).
T1 construct: connecting residue 276 of K^d heavy chain to the first residue of β2 -microglobulin through spacers; made in house
T1 sequence (P01902+P01887 with tags, fused parts or gaps): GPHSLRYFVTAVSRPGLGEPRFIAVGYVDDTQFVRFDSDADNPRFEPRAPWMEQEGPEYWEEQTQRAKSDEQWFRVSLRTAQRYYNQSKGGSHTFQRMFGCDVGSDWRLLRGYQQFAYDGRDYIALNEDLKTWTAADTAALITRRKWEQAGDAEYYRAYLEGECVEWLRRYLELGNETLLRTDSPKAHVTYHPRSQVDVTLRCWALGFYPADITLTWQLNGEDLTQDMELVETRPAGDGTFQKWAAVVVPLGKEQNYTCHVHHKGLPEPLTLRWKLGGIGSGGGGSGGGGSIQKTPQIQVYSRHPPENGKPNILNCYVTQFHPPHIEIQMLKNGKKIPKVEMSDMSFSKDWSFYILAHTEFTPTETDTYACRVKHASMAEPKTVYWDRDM
Briefly: Direct peptide binding assay, solid phase, with purified 35S-labeled SC-Kd. As to conditions: for binding of peptide to SC-K^d -15 (in words): direct binding assay. As to the method: (§1) Direct Peptide Binding Assay. Wells of microtiter plates are pretreated with 100 μl 2.5% glutaraldehyde in distilled water for 2 h at 20° C., washed with distilled water, and coated for 16 h at 4° C. with 100 μl of peptide diluted at 5 μg/ml either in carbonate-bicarbonate buffer, pH 9.6, or in PBS, pH 7.4 or pH 5.0. Remaining free sites are blocked by incubation for 2 h at 20° C. with BSA diluted 1% in PBS containing 0.05% Tween 20 (Tw) and 0.02% sodium azoture. After washing, purified ^125 I-HLA molecules (100 μl containing 1.5×10^5 cpm, 10^-9 M) diluted in PBS containing 1% BSA, 0.05% Tw, 0.02% sodium azoture, 1 mM PMSF, and 10 μg/ml trypsin inhibitor are added and incubated for 20 h at 20° C. After extensive washing, the radioactivity of each well is counted.
Inhibition Peptide Binding Assay. Concentrations of 0.1-100 μM of competitor peptides are incubated in tubes for 0-3 h at 20° C. with ^125 I-HLA (10^-9 M) diluted in PBS--BSA--Tw containing the protease inhibitors as mentioned above. […] After extensive washing, the radioactivity in each well is counted and the percent of inhibition is calculated.
(§2) COS-1 cells (usually 10^7 cells) were transfected with pSC-K^d -15 DNA, labeled and lysed as above. […] After the final wash in PBS, SC-K^d -15 was eluted from the matrix with an equal volume of 3M thiocyanate for 10 min on ice. After an overnight dialysis in PBS containing 0.1% NP40, 0.05% Tween and 0.2% BSA, SC-K^d -15 was used in direct binding test as below. Its purity was assessed by SDS-PAGE.
Peptides used in this study are described in Choppin et al. (Choppin, J., Martinon, F., Gomard, E., Bahraoui, E., Connan, F., Bouillot, F., and Levy, J.-P, J. Exp. Med., 1990. 172:889 and references therein), except for HLA-Cw3 and HLA-A24 described in Maryanski, J. Ll, Pala, P., Cerottini, J.-C, and Corradin, G., J. Exp. Med. 1988. 167:1391. Binding assays were performed as described in Choppin, J., Martinon, F., Gomard, E., Bahraoui, E., Connan, F., Bouillot, F., and Levy, J.-P, J. Exp. Med., 1990. 172:889. DR3, DRw13, and K^d molecules were also purified and iodinated as in Choppin, J., Martinon, F., Gomard, E., Bahraoui, E., Connan, F., Bouillot, F., and Levy, J.-P, J. Exp. Med., 1990. 172:889.
K^d molecules isolated from the spleen of BALB/c mice were then purified and iodinated. They were purified by affinity chromatography on a 20-8-4 mAb column and compared binding of peptides by the latter and by ^35 S-labeled SC-K^d -15 in the assay of Bouillot et al. (Bouillot, M., Choppin, J., Cornille, F., Martinon, F., Papo, T., Gomard, E., FournieZaluski, M.-C., and Levey, J.-P., Nature 1989. 339:473 and Choppin, J., Martinon, F., Gomard, E., Bahraoui, E., Connan, F., Bouillot, F., and Levy, J.-P, J. Exp. Med., 1990. 172:889).

Another test addresses HLA-DR3 (Homo sapiens, UniProt P01903+P01911). Briefly: Direct peptide binding assay with purified 125I-labeled HLA-DR3 (positive control). As to the method:
(§3) Direct Peptide Binding Assay. Wells of microtiter plates are pretreated with 100 μl 2.5% glutaraldehyde in distilled water for 2 h at 20° C., washed with distilled water, […] buffer, pH 9.6, or in PBS, pH 7.4 or pH 5.0. Remaining free sites are blocked by incubation for 2 h at 20° C. with BSA diluted 1% in PBS containing 0.05% Tween 20 (Tw) and 0.02% sodium azoture. […] After extensive washing, the radioactivity of each well is counted.

The target of another test is DRw13 (Homo sapiens, UniProt P01903+P01911). Nature of the test: Direct peptide binding assay with purified 125I-labeled HLA-DRw13 (positive control). As to the method:
as §3

Test [9] deals with T2, K^d molecules isolated from the spleen of BALB/c mice (Mus musculus, UniProt P01902).
T2 construct: K^d molecules isolated from the spleen of BALB/c mice; from tissue
T2 sequence (P01902 22-368): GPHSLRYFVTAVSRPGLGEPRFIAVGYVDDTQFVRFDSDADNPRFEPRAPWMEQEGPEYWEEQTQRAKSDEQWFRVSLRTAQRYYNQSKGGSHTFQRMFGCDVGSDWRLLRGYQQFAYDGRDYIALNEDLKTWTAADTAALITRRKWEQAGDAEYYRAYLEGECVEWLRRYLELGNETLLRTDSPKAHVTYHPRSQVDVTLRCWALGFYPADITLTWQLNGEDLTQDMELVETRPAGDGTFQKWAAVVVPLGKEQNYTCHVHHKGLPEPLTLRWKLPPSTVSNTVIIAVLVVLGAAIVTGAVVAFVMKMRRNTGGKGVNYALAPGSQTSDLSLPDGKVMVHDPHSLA
T2 sequence (P01887 21-119 partner): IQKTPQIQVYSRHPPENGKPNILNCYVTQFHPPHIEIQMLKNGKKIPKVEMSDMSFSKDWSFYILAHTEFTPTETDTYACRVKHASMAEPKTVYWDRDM
Nature of the test: Direct peptide binding assay with purified 125I-labeled conventional K^d. As to the method:
as §1
Inhibition Peptide Binding Assay. Concentrations of 0.1-100 μM of competitor peptides are incubated in tubes for 0-3 h at 20° C. with ^125 I-HLA (10^-9 M) diluted in PBS--BSA--Tw containing the protease inhibitors as mentioned above. […] After extensive washing, the radioactivity in each well is counted and the percent of inhibition is calculated. […]

Test [10] deals with T1, SC-K^d -15. Nature of the test: Direct peptide binding assay, solid phase, with purified 35S-labeled SC-Kd. Particulars: Table 10 (A), input 10,000 cpm, duplicates.
The subject of the next test is mAb 34-1-2. Nature of the test: Immunoprecipitation of 35S-labeled SC-K^d molecules from transfected COS-1 cell extracts by mAb 34-1-2. The class given is binding. As to the method: as §2
In test [11] the target is SC-K^d -15 (mouse) (UniProt P01887). Nature of the test: direct peptide binding assay, peptide coated at 30 µg/ml pH 9.6, 35S-labeled SC-Kd, input 10,000 cpm, duplicate.
Test [12] has as its target HLA-DR3 (human). Briefly: direct peptide binding assay, peptide coated at 30 µg/ml pH 9.6, 125I-labeled HLA-DR3, input 200000 cpm, duplicate.
In test [13] the target is HLA-DRw13 (human). Briefly: direct peptide binding assay, peptide coated at 30 µg/ml pH 9.6, 125I-labeled HLA-DRw13, input 200000 cpm, duplicate.
The target of test [14] is SC-K^d -15 (mouse) (UniProt P01887). Nature of the test: direct peptide binding assay, peptide coated at 5 µg/ml pH 9.6, 35S-labeled SC-Kd, input 6000 cpm, no coated peptide 228 and 223, duplicate.
Where [15] appears, read: Table 10 (A), input 200000 cpm, peptide 10 μg/ml, pH 5, duplicates.

Where “and” joins values, the source holds several entries; their conditions need not be identical. Equal values may be shown once.

Take HIV 1 Vpr. 68-80 (peptide): the cpm bound to coated env 312-327 in the presence of the competitor in test [1] is 359 cpm and 409 cpm; with SC-K^d -15 (mouse) [2] it was 42 cpm and 41 cpm. Besides, the cpm bound is 710 cpm and 621 cpm with SC-K^d -15 (mouse) [3]; 18600 cpm and 18200 cpm in the test with HLA-DR3 (human) [4]; 21800 cpm and 20600 cpm with HLA-DRw13 (human) [5].

As to HLA-A24 170-182 (peptide), the cpm bound with SC-K^d -15 (mouse) [6] was 284 cpm; in test [7] it was 1060 cpm and 1300 cpm.

For the substance LFIHFRIGORHSR [vpr 68-80], in the test with SC-K^d -15 [8] (Table 10 (B), competition, env 312-327 bound to plastic + labelled peptide as competitor, input 6000 cpm, duplicates), the “35S-labeled SC-Kd bound to coated env 312-327 in presence of the competing peptide” value was 42 cpm and 41 cpm. The “competition with env 312-327 peptide bound to plastic (in words)” value in the test with SC-K^d -15 [8] (competition experiment, SC-K^d) was “competed efficiently”; in test [9] (competition experiment, K^d) it was “competed efficiently”. In addition, the “binding of peptide to SC-K^d -15 (in words)” value with SC-K^d -15 [8] is on record as “significant binding”. Moreover, the “125I-labeled HLA-DR3 bound to coated peptide” value in the test with HLA-DR3 (setting [15]) was 18582 cpm and 18245 cpm. The “binding of peptide to HLA-DR3 positive control (in words)” value with HLA-DR3 (direct binding assay) is listed as “significant binding”. In the test with DRw13 (setting [15]), the “125I-labeled HLA-DRw13 bound to coated peptide” value is 21838 cpm and 20593 cpm. Besides, the “binding of peptide to DR213 positive control (in words)” value in the test with DRw13 (direct binding assay) was “significant binding”. Further, the “125I-labeled H-2K bound to coated env 312-327 in presence of the competing peptide” value in test [9] (Table 10 (B), competition, env 312-327 bound to plastic + labelled peptide as competitor, input 100000 cpm, duplicates) is 359 cpm and 409 cpm. Besides, the “35S-labeled SC-Kd bound to coated peptide” value in the test with SC-K^d -15 [10] (peptide 10 μg/ml, pH 5) was 710 cpm and 621 cpm.

IRIQRGPGRAFVTIGK [env 312-327]: the “35S-labeled SC-Kd bound to coated peptide” value with SC-K^d -15 [8] (Table 10 (B), input 6000 cpm, peptide 5 μg/ml, pH 9.6, duplicates) was 390 cpm and 377 cpm; in the test with SC-K^d -15 [10] (peptide 30 μg/ml, pH 9.6), 750 cpm and 712 cpm. For the same substance, the “binding of peptide to SC-K^d -15 (in words)” value with SC-K^d -15 [8] is reported as “significant binding”.

In the case of TYQRTRALVTG [NPR 147-158], the “effect of added immunogenic peptide on immunoprecipitation of SC-K^d molecules” value in the test on mAb 34-1-2 is “no effect”.

Take HIV 1 Env. 312-327 (peptide): the cpm bound in the test with SC-K^d -15 (mouse) [11] was 750 cpm and 712 cpm; with HLA-DR3 (human) [12] it was 3780 cpm; with HLA-DRw13 (human) [13], 22600 cpm; with SC-K^d -15 (mouse) [14] it was 390 cpm and 377 cpm.

Consider HLA-Cw3 170-182 (peptide), for which the cpm bound to coated env 312-327 in the presence of the competitor was 15400 cpm and 15800 cpm in [1]; 367 cpm and 375 cpm with SC-K^d -15 (mouse) [2]. Besides, the cpm bound with SC-K^d -15 (mouse) [6] was 169 cpm and 117 cpm; in [7], 1340 cpm and 1380 cpm.

As for HIV 1 Nef. 66-80 (peptide), the cpm bound was 475 cpm and 397 cpm with SC-K^d -15 (mouse) [11]; 2320 cpm and 1820 cpm with HLA-DR3 (human) [12]; 1390 cpm and 1290 cpm with HLA-DRw13 (human) [13].

Source of the values: patent US6011146A, “Altered major histocompatibility complex (MHC) determinant and methods of using the determinant” (Institut Pasteur, priority 1995, dated 2000).
